Patent US20190119366A1 (ADC THERAPEUTICS, published 2019)

T1: recombinant human KAAG1 (Kidney associated antigen 1) (human, UniProt Q9UBP8 1-84)
T1 construct: also called KAAG1 protein
T1 sequence: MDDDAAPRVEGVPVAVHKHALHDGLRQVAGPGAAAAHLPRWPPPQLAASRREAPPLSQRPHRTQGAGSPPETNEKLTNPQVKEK

T2: KAAG1 on the surface of cancer cells (human, UniProt Q9UBP8 1-84)
T2 construct: Endogenous KAAG1 of human cancer cell lines and of tumor tissue sections; also called KAAG1 antigen
T2 sequence: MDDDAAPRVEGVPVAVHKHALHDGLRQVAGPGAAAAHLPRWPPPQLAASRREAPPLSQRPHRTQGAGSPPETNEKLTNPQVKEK


Legend:
[1] = target: T1, recombinant human KAAG1 (Kidney …); assay: SPR (ProteOn XPR36), antibody captured on anti-human IgG Fc, KAAG1 as analyte
Protocol: (§1) Immediately after the activation, a 13 μg/mL solution of anti-human IgG Fc fragment specific in 10 mM NaOAc pH 4.5 was injected in the analyte direction at a flow rate of 25 μL/min until approximately 8000 resonance units (RUs) were immobilized. Remaining active groups were quenched by a 300 s injection of 1M ethanolamine at 30 μL/min in the analyte direction, and this also ensures mock-activated interspots are created for blank referencing. The screening of the 3A4 variants for binding to KAAG1 occurred in two steps: an indirect capture of 3A4 variants from cell supernatant onto the anti-human IgG Fc fragment specific surface in the ligand direction(vertical) followed by a KAAG1 injection in the analyte direction. Firstly, one buffer injection for 30 s at 100 uL/min in the ligand direction was used to stabilize the baseline. […] Four to five 3A4 variants along with wild-type 3A4 were simultaneously injected in individual ligand channels for 240 s at flow 25 μL/min. […] The first ligand channel was left empty to use as a blank control if required. This 3A4 capture step was immediately followed by two buffer injections in the analyte direction to stabilize the baseline, and then the gel filtration purified KAAG1 was injected. For a typical screen, five KAAG1 concentrations (8, 2.66, 0.89, 0.29, and 0.098 nM) and buffer control were simultaneously injected in individual analyte channels at 50 μL/min for 120 s with a 600s dissociation phase, resulting in a set of binding sensorgrams with a buffer reference for each of the captured 3A4 variants. The anti-human IgG Fc fragment specific—3A4 complexes were regenerated by a 18 s pulse of 0.85% phosphoric acid for 18 s at 100 μL/min to prepare the anti-human IgG Fc fragment specific surface for the next injection cycle. Sensorgrams were aligned and double-referenced using the buffer blank injection and interspots, and the resulting sensorgrams were analyzed using ProteOn Manager software v3.0.

[2] = target: T1, recombinant human KAAG1 (Kidney …); assay: SPR (BioRad ProteOn XPR36); fold difference of KD relative to LcHc
Protocol: as §1

[3] = target: T1, recombinant human KAAG1 (Kidney …); assay: SPR (BioRad ProteOn XPR36): antibody captured on an anti-human IgG Fc surface, KAAG1 injected as analyte, 1:1 Langmuir fit
Protocol: as §1

[4] = target: T1, recombinant human KAAG1 (Kidney …); assay: epitope mapping studies (method not described)
[5] = target: T2, KAAG1 on the surface of cancer cells; assay: flow cytometry, MDA-231 cells

Binder	Kd [1]	fold difference in binding affinity between the worse variant (H1 L1) and the best variant (H4L2) [1]	Fold diff. [2]	Kd [3]	koff [3]	kon [3]	fold weaker affinity than the murine (LcHc) [1]	binding result [4]	binding result [5]
humanized 3A4 antibody Lh1Hh1 (antibody, human IgG1, kappa, V domains shown, Human IgG1/kappa; 100% humanized frameworks; also called H1 L1; H1L1) VH: QVQLVQSGAEVKKPGASVKVSCKASGYTFTDDYMSWVRQAPGQGLEWMGDINPYNGDTNYNQKFKGRVTITADTSTSTAYMELSSLRSEDTAVYYCARDPGAMDYWGQGTLVTVSS VL: DIVMTQTPLSLPVTPGEPASISCRSSQSLLHSNGNTYLEWYLQKPGQSPQLLIYTVSNRFSGVPDRFSGSGSGTDFTLKISRVEAEDVGVYYCFQGSHVPLTFGQGTKLEIKR	0.47 nM	4 fold	29.6	0.474 nM	0.00328 s⁻¹	6.93e+06 M⁻¹ s⁻¹	–	–	–
humanized 3A4 antibody Lh2Hh4 (antibody, human IgG1, kappa, V domains shown, Human IgG1/kappa; 10 mouse framework residues retained; also called H4L2) VH: QIQLVQSGAEVKKPGASVKVSCKASGYTFTDDYMSWVKQAPGQGLEWIGDINPYNGDTNYNQKFKGKATLTVDKSTSTAYMELSSLRSEDTAVYYCARDPGAMDYWGQGTLVTVSS VL: DVVMTQTPLSLPVTPGEPASISCRSSQSLLHSNGNTYLEWYLQKPGQSPKLLIYTVSNRFSGVPDRFSGSGSGTDFTLKISRVEAEDVGVYYCFQGSHVPLTFGQGTKLEIKR	0.1 nM	–	6.4	0.103 nM	0.00047 s⁻¹	4.57e+06 M⁻¹ s⁻¹	~6 fold	–	–
humanized 3A4 antibody Lh1Hh4 (antibody, human IgG1, kappa, V domains shown, Human IgG1/kappa) VH: QIQLVQSGAEVKKPGASVKVSCKASGYTFTDDYMSWVKQAPGQGLEWIGDINPYNGDTNYNQKFKGKATLTVDKSTSTAYMELSSLRSEDTAVYYCARDPGAMDYWGQGTLVTVSS VL: DIVMTQTPLSLPVTPGEPASISCRSSQSLLHSNGNTYLEWYLQKPGQSPQLLIYTVSNRFSGVPDRFSGSGSGTDFTLKISRVEAEDVGVYYCFQGSHVPLTFGQGTKLEIKR	–	–	9.3	0.149 nM	0.000764 s⁻¹	5.14e+06 M⁻¹ s⁻¹	–	–	–
humanized 3A4 antibody Lh2Hh1 (antibody, human IgG1, kappa, V domains shown, Human IgG1/kappa) VH: QVQLVQSGAEVKKPGASVKVSCKASGYTFTDDYMSWVRQAPGQGLEWMGDINPYNGDTNYNQKFKGRVTITADTSTSTAYMELSSLRSEDTAVYYCARDPGAMDYWGQGTLVTVSS VL: DVVMTQTPLSLPVTPGEPASISCRSSQSLLHSNGNTYLEWYLQKPGQSPKLLIYTVSNRFSGVPDRFSGSGSGTDFTLKISRVEAEDVGVYYCFQGSHVPLTFGQGTKLEIKR	–	–	21.3	0.341 nM	0.00237 s⁻¹	6.97e+06 M⁻¹ s⁻¹	–	–	–
humanized 3A4 antibody Lh2Hh2 (antibody, human IgG1, kappa, V domains shown, Human IgG1/kappa) VH: QIQLVQSGAEVKKPGASVKVSCKASGYTFTDDYMSWVRQAPGQGLEWMGDINPYNGDTNYNQKFKGRVTITADKSTSTAYMELSSLRSEDTAVYYCARDPGAMDYWGQGTLVTVSS VL: DVVMTQTPLSLPVTPGEPASISCRSSQSLLHSNGNTYLEWYLQKPGQSPKLLIYTVSNRFSGVPDRFSGSGSGTDFTLKISRVEAEDVGVYYCFQGSHVPLTFGQGTKLEIKR	–	–	15.3	0.245 nM	0.00181 s⁻¹	7.4e+06 M⁻¹ s⁻¹	–	–	–
humanized 3A4 antibody Lh2Hh3 (antibody, human IgG1, kappa, V domains shown, Human IgG1/kappa) VH: QIQLVQSGAEVKKPGASVKVSCKASGYTFTDDYMSWVRQAPGQGLEWIGDINPYNGDTNYNQKFKGRATLTVDKSTSTAYMELSSLRSEDTAVYYCARDPGAMDYWGQGTLVTVSS VL: DVVMTQTPLSLPVTPGEPASISCRSSQSLLHSNGNTYLEWYLQKPGQSPKLLIYTVSNRFSGVPDRFSGSGSGTDFTLKISRVEAEDVGVYYCFQGSHVPLTFGQGTKLEIKR	–	–	14.3	0.228 nM	0.00102 s⁻¹	4.46e+06 M⁻¹ s⁻¹	–	–	–
humanized 3A4 antibody Lh1Hh3 (antibody, human IgG1, kappa, V domains shown, Human IgG1/kappa) VH: QIQLVQSGAEVKKPGASVKVSCKASGYTFTDDYMSWVRQAPGQGLEWIGDINPYNGDTNYNQKFKGRATLTVDKSTSTAYMELSSLRSEDTAVYYCARDPGAMDYWGQGTLVTVSS VL: DIVMTQTPLSLPVTPGEPASISCRSSQSLLHSNGNTYLEWYLQKPGQSPQLLIYTVSNRFSGVPDRFSGSGSGTDFTLKISRVEAEDVGVYYCFQGSHVPLTFGQGTKLEIKR	–	–	9.3	0.149 nM	0.00096 s⁻¹	6.46e+06 M⁻¹ s⁻¹	–	–	–
3G10 anti-KAAG1 antibody (antibody, V domains shown) VH: EIQLQQSGPELVKPGASVKISCKASGYTFTDNYMNWVKQSHGKSLEWIGDINPYYGTTTYNQKFKGKATLTVDKSSRTAYMELRGLTSEDSAVYYCARDDWFDYWGQGTLVTVSA VL: DVLMTQTPRSLSVSLGDQASISCRSSQSLLHSNGNTYLEWYLQKPGQPPKVLIYKVSNRFSGVPDRFSGSGSGTDFTLKISGVEAEDLGVYYCFQGSHVPLTFGAGTKLELK	–	–	–	–	–	–	–	binds	–
3A4-ADC1 (chimeric 3A4 conjugated to a cytotoxic drug via a cleavable peptide linker) (antibody, human IgG1, kappa, V domains shown, cytotoxic drug conjugated via a highly stable peptide linker that is selectively cleaved by lysosomal enzymes; chain and residues of attachment not stated) VH: QIQLVQSGPEMVKPGASVKMSCKASGYTFTDDYMSWVKQSHGKSLEWIGDINPYNGDTNYNQKFKGKAILTVDKSSSTAYMQLNSLTSEDSAVYYCARDPGAMDYWGQGTSVTVSS VL: DVVMTQTPLSLAVSLGDQASISCRSSQSLLHSNGNTYLEWYLQKPGQSPKLLIHTVSNRFSGVPDRFSGSGSGTDFTLKISRVEAEDLGVYYCFQGSHVPLTFGAGTRLELKR	–	–	–	–	–	–	–	–	binds
3A4-ADC2 (chimeric 3A4 conjugated to an anti-mitotic drug via a non-cleavable linker) (antibody, human IgG1, kappa, V domains shown, anti-mitotic drug conjugated via a non-cleavable linker; chain and residues of attachment not stated) VH: QIQLVQSGPEMVKPGASVKMSCKASGYTFTDDYMSWVKQSHGKSLEWIGDINPYNGDTNYNQKFKGKAILTVDKSSSTAYMQLNSLTSEDSAVYYCARDPGAMDYWGQGTSVTVSS VL: DVVMTQTPLSLAVSLGDQASISCRSSQSLLHSNGNTYLEWYLQKPGQSPKLLIHTVSNRFSGVPDRFSGSGSGTDFTLKISRVEAEDLGVYYCFQGSHVPLTFGAGTRLELKR	–	–	–	–	–	–	–	–	binds
